This note sets out measurements from US20050221288A1.

Experiment [1] deals with endogenous P-TEFb complex (positive transcription elongation factor b) (UniProt P50750). Put plainly: GST pull-down of endogenous P-TEFb from cell extract, read out by the Tat-associated kinase assay.
The target is the same in experiment [2]. Put plainly: cell-based or functional assay.

UniProt P50750, sequence (P50750 whole entry, chain 1 of 2): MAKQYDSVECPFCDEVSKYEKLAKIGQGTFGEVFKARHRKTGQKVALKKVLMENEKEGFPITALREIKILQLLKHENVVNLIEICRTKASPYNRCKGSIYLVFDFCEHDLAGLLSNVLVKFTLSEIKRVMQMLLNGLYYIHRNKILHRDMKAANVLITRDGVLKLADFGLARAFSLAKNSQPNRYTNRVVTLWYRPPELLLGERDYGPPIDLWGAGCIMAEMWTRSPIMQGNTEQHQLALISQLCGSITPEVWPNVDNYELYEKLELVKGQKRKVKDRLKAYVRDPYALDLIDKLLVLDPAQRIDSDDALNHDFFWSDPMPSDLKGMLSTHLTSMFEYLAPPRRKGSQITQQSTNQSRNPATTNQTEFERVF
UniProt P50750, sequence (O60563 whole entry, chain 2 of 2, further chain): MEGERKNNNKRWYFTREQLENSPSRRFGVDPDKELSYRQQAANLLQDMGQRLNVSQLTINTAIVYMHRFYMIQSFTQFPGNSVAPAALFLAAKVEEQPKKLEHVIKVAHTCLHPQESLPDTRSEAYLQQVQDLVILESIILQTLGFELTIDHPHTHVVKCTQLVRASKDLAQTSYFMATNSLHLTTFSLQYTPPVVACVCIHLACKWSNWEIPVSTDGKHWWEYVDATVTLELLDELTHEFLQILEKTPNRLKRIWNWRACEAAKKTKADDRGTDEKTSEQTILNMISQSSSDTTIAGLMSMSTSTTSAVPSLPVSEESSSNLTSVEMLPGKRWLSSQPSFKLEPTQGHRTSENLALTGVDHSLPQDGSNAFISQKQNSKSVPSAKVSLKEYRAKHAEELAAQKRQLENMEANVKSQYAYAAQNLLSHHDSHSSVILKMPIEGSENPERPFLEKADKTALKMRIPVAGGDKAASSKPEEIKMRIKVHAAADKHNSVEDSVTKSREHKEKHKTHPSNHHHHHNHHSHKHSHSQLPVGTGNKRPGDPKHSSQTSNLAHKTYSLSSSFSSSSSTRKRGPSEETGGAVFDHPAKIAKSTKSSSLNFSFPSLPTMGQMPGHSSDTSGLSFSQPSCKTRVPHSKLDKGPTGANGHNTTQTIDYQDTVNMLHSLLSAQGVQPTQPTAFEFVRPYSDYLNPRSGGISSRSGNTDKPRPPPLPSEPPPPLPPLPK

For “GST-Tat T23N (1-72) (from UniProt P04608 1-72)”, in experiment [1], the fold stronger binding than wild-type Tat turned out to be 3.5 fold. The extent of CTD phosphorylation (Tat-associated kinase assay after GST pull-down; U937 or 293 cell extract) (fold over wild-type Tat) in experiment [2] is 3.5.
